{
  "source": "patent US20100129390A1",
  "about": "“DKK1 AS A UNIVERSAL TUMOR VACCINE FOR IMMUNOTHERAPY OF CANCERS” (priority 2007, published 2010)",
  "molecules": {"B1": {"name": "DKK1 Protein Vaccine: murine DKK1 protein, 50 ug/mouse s.c. (protein, UniProt O54908 32-272, looked up)", "Dickkopf-related protein 1": "TLNSVLINSNAIKNLPPPLGGAGGQPGSAVSVAPGVLYEGGNKYQTLDNYQPYPCAEDEECGSDEYCSSPSRGAAGVGGVQICLACRKRRKRCMRHAMCCPGNYCKNGICMPSDHSHFPRGEIEESIIENLGNDHNAAAGDGYPRRTTLTSKIYHTKGQEGSVCLRSSDCAAGLCCARHFWSKICKPVLKEGQVCTKHKRKGSHGLEIFQRCYCGEGLACRIQKDHHQASNSSRLHTCQRH"}, "B2": {"name": "DKK1 peptide P66 (peptide)", "peptide": "ILYPGGNKY", "notes": "Synthetic peptide; the end of the range follows from the length of 9 residues"}, "B3": {"name": "DKK1 peptide P20 (peptide)", "peptide": "ALGGHPLLGV", "notes": "Synthetic peptide, purity >98%; the end of the range follows from the length of 10 residues"}},
  "key": {"[1]": {"test_system": "HLA-A*0201 transgenic mice", "experiment": "In vivo immunogenicity of the peptides", "conditions": "100 μg per mouse s.c., single immunization, splenocytes two weeks after", "excerpt": "HLA-A*0201 transgenic (Tg[HLA-A2.1]) mice were purchased from Jackson Laboratory (Bar Harbor, Me.). Ishioka, G. Y., et al., Utilization of MHC Class I Transgenic Mice for Development of Minigene DNA Vaccines Encoding Multiple HLA-Restricted CTL Epitopes, J. Immunol. 1999, 162:3915-3925; Alexander, J., et al., A Decaepitope Polypeptide Primes for Multiple CD8+ IFN-Gamma and Th Lymphocyte Responses: Evaluation of Multiepitope Polypeptides as a Mode for Vaccine Delivery, J. Immunol. […] Mice were maintained at the animal facility and studies were approved by the Institutional Animal Care and Use Committees of The University of Texas M. D. Anderson Cancer Center.\nFor immunization, peptides were diluted in PBS at room temperature, mixed, and emulsified with an equal volume of incomplete Freund's adjuvant (Sigma). […]\nTo examine whether the peptides were able to immunize HLA-A*0201 transgenic mice, we injected 100 μg per mouse of peptides P20 (SEQ. ID NO. 1) and P66v (SEQ. ID. NO. 4), and Flu-matrix peptide as positive control s.c. to the mice (3 mice per peptide) according to established protocol. […] In vivo immunization successfully generated peptide-specific T cells, detected as specific IFN-γ-expressing (FIG. 2C) and peptide (P20 or P66v)-HLA-A*0201 tetramer^+ CD8^+ T cells (FIG. 2D)."}, "[2]": {"test_system": "DKK1 peptide-specific T-cell lines", "experiment": "T-cell proliferation assay (3[H]-thymidine)", "assay_type": "cell-based, human", "conditions": "after 3 to 4 rounds of in vitro stimulation; P<0.01 compared with unpulsed DC", "experimental": "DKK1-specific T cells were generated from PBMCs of HLA-A*0201^+ blood donors and myeloma patients by repeated stimulation of autologous T cells with DKK1 peptide-loaded mature DCs. Briefly, the non-adherent cells of PBMCs (2×10^6/mL; used as T-cell population) were cocultured in 50 mL tissue-culture flasks at 37° C. in 5% CO2 for 7-10 days in Aim-V medium supplemented with 10% pooled human serum (T-cell medium) with mature DCs (2×10^5/mL) preincubated with DKK1 peptides at a final concentration of 50 μg/mL at 37° C. for 2 h. After culture, T cells were collected and restimulated with DKK1 peptide-pulsed autologous mature DCs every week, and the cultures were fed every 5 days with fresh medium containing recombinant IL-2 (20 IU/mL), IL-7 (5 ng/mL) and IL-15 (5 ng/mL; all from R&D System). Induction of DKK1-specific T cells was monitored weekly using T-cell proliferation assay and DKK1 peptide-HLA-A*0201 tetramers (synthesized by MHC Tetramer Laboratory, Baylor College of Medicine, Houston, Tex.). […]\nT cells (5×10^4/100 μL/well) were seeded into 96-well U-bottom tissue culture plates (Corning Incorporated, Corning, N.Y.) in T-cell medium. […] T-cell proliferation was measured after overnight incubation with ^3[H]-thymidine ([…]/0.037 MBq/well). Results are expressed as mean count per minute (CPM) of triplicate cultures."}, "[3]": {"molecular_target": "T1, HLA-A*0201 molecules (Homo sapiens, UniProt P04439, D140Y/D185E/D98H/E176V/E277Q/G131W/G231S/I119V/I121R/I166T/I218V/L300P/L318F/N151K/N90K/P208A/P217A/Q86G/Q94H/R138H/R169H/T345S)", "T1 construct": "endogenous in cells; host or cells: T2 cell line", "experiment": "Peptide-T2 cell binding assay", "conditions": "HLA-A*0201 expression by flow cytometry (FIG. 2A)", "experimental": "All peptides were synthesized in the Peptide Synthesis Facility at M. D. Anderson Cancer Center. Purity of synthetic peptides was confirmed to be >98% by reverse-phase high-performance liquid chromatography and mass spectrometry. Synthetic peptides were dissolved in dimethylsulfoxide (DMSO; Sigma, St. Louis, Mo.), and stored at −20° C. until use. Peptides binding to HLA-A*0201 molecules were measured using the T2 cell line according to a protocol previously described. Nijman, H. W., et al., Identification of Peptide Sequences that Potentially Trigger HLA-A2.1-Restricted Cytotoxic T Lymphocytes, Eur J. Immunol. 1993, 23:1215-1219. Briefly, T2 cells were incubated overnight with 3 μg/mL of β2-microglobulin (Sigma) and different concentrations of peptides, followed by wash and incubation with FITC-labeled anti-HLA-A*0201 mAb BB7.2 (BD PharMingen). After washing, cells were analyzed for the levels of HLA-A*0201 expression by flow cytometry. HLA-A*0201 expression was quantified according to the formula [(mean fluorescence with peptide−mean fluorescence without peptide)/mean fluorescence without peptide]×100."}, "[4]": {"molecular_target": "T2, HLA-A*0201 molecules on T2 cells (human)", "T2 construct": "MHC class I molecule on T2 cells; also called HLA-A2.1", "experiment": "cell-based or functional assay"}, "[5]": {"molecular_target": "HLA-ABC", "experiment": "cell-based or functional assay"}, "[6]": {"test_system": "murine myeloma cell line tumor-A", "experiment": "Vaccination and murine myeloma challenge", "assay_type": "in vivo, Balb/c mice", "conditions": "vaccinated three times, s.c. challenge with tumor-A 1×10^6 cells/mouse", "experimental": "Balb/c mice (4 per group) were s.c. vaccinated three times with murine DKK1 protein (50 ug/mouse) at a 30-day interval followed by s.c. challenge with murine myeloma cell line tumor-A (1×10^6 cells/mouse) after one weeks of third vaccination. Tumor burdens were measured twice every wk. Mice were euthanized when s.c. tumors reached 225 mm^2 or when mice became moribund. FIG. 18A is a graph depicting ELISA titers of anti-DKK1 antibody in the serum of immunized mice. Results shown in FIG. 18B are survival of mice that received DKK1 protein vaccinations and PBS control. Splenocytes were isolated from survival mice and pooled, and restimulated with irradiated tumor-A for 5 d. […]\nBalb/c mice (5 per group) were s.c. vaccinated three times with three DKK1 peptides (100 ug/mouse) at a 14-day interval followed by s.c. challenge with murine myeloma cell line tumor-A (1×10^6 cells/mouse) after one week of third vaccination. Tumor burdens were measured twice every wk. […]\nBalb/c mice (5 per group) were i.m. vaccinated three times with murine DKK1 DNA (50 ug/mouse) at a 14-day interval followed by s.c. challenge with murine myeloma cell line tumor-A (1×10^6 cells/mouse) after one weeks of third vaccination. Tumor burdens were measured twice every wk. […]"}, "[7]": {"molecular_target": "T2, HLA-A*0201 molecules on T2 cells", "experiment": "peptide-T2 cell binding assay, flow cytometry of surface HLA-A*0201 with mAb BB7.2", "experimental": "All peptides were synthesized in the Peptide Synthesis Facility at M. D. Anderson Cancer Center. Purity of synthetic peptides was confirmed to be >98% by reverse-phase high-performance liquid chromatography and mass spectrometry. Synthetic peptides were dissolved in dimethylsulfoxide (DMSO; Sigma, St. Louis, Mo.), and stored at −20° C. until use. […] Nijman, H. W., et al., Identification of Peptide Sequences that Potentially Trigger HLA-A2.1-Restricted Cytotoxic T Lymphocytes, Eur J. Immunol. 1993, 23:1215-1219."}},
  "data": [
    {"molecule": "ALGGHPLLGV (listed as Homo Sapiens) [P20]", "values": [
      {"measurement": "immunogenicity in immunizing the mice", "setting": "[1]", "result": "as immunogenic as the Flu-matrix peptide"},
      {"measurement": "T-cell line proliferation in response to autologous DCs pulsed with peptide", "setting": "[2]", "result": "proliferated in response to autologous DCs pulsed, but not unpulsed"}
    ]},
    {"molecule": "ILYPGGNKV (listed as Homo Sapiens) [P66v]", "values": [
      {"measurement": "binding affinity", "setting": "[3]", "result": "much higher binding affinity than P66"},
      {"measurement": "immunogenicity in immunizing the mice", "setting": "[1]", "result": "as immunogenic as the Flu-matrix peptide"},
      {"measurement": "T-cell line proliferation in response to autologous DCs pulsed with peptide", "setting": "[2]", "result": "proliferated in response to autologous DCs pulsed, but not unpulsed"}
    ]},
    {"molecule": "anti-HLA-A*0201 mAb BB7.2 (antibody)", "values": [
      {"measurement": "inhibition of T cell-mediated cytotoxicity against peptide-pulsed T2 cells (51Cr release)", "setting": "[4]", "result": "70 to 80", "unit": "% inhibition"}
    ]},
    {"molecule": "anti-HLA-ABC mAb W6/32 (antibody)", "values": [
      {"measurement": "inhibition of T cell-mediated cytotoxicity against peptide-pulsed T2 cells (51Cr release)", "setting": "[5]", "result": "70 to 80", "unit": "% inhibition"}
    ]},
    {"molecule": "B1", "values": [
      {"measurement": "protection against murine MM challenge", "setting": "[6]", "result": "can Protect Murine MM Challenge"}
    ]},
    {"molecule": "ILYPGGNKV (Heteroclitic variant of P66)", "note": "[DKK1 heteroclitic peptide P66v]", "values": [
      {"measurement": "binding result", "setting": "[7]", "result": "binds"}
    ]},
    {"molecule": "B2", "values": [
      {"measurement": "binding result", "setting": "[7]", "result": "binds"}
    ]},
    {"molecule": "B3", "values": [
      {"measurement": "binding result", "setting": "[7]", "result": "binds"}
    ]},
    {"molecule": "YLGGHPLLGV (Heteroclitic variant of P20)", "note": "[DKK1 heteroclitic peptide Py20]", "values": [
      {"measurement": "binding result", "setting": "[7]", "result": "binds"}
    ]}
  ]
}
